# Data published in paper PMC10786891, “Massively parallel profiling of RNA-targeting CRISPR-Cas13d”.
# T1: EsCas13d, nuclease-dead (Eubacterium siraeum, UniProt B0MS50, R295A;H300A;R849A;H854A)
# T1 sequence: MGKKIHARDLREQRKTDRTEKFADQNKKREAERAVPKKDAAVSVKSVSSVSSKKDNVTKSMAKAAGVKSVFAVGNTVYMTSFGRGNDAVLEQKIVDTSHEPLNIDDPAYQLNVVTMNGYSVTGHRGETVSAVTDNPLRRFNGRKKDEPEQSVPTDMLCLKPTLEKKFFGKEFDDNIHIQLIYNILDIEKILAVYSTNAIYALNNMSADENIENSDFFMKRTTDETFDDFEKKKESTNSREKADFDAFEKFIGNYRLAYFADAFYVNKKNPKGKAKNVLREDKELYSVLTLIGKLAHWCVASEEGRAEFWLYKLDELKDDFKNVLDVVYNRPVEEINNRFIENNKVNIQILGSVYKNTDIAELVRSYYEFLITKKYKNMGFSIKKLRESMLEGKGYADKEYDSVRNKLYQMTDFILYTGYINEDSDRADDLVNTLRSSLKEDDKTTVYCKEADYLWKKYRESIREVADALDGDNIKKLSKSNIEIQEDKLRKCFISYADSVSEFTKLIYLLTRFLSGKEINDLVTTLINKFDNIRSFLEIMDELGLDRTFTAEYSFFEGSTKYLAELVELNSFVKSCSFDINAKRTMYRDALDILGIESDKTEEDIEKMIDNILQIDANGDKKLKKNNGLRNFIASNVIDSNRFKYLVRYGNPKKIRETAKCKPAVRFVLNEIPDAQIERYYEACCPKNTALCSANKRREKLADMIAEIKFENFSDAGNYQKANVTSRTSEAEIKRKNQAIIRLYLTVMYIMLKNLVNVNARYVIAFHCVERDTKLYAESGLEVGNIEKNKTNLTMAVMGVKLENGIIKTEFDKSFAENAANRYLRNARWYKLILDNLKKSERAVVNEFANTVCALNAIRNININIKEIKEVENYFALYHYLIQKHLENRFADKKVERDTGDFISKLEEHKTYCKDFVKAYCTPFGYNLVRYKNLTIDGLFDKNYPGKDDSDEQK
# B1: target 2 MT 5'PFS AAG 3'PFS UAU (mixed)
# RNA 1: CACCCGUGCAAAAUUGCAGGGGUCUAAAACCUUCUCCAAAUUGUUUCAUCCU
# RNA 2: GGGAAUGGAUCCACAUCUACGAAUUCAAGAGGAUGAAACAAUUUGGAGAAGUAUAGAUCGGAAGAGCACACGU
# B2: target 2 MT 5'PFS CUU 3'PFS AUG (mixed)
# RNA 1: CACCCGUGCAAAAUUGCAGGGGUCUAAAACCUUCUCCAAAUUGUUUCAUCCU
# RNA 2: GGGAAUGGAUCCACAUCUACGAAUUCCUUAGGAUGAAACAAUUUGGAGAAGAUGAGAUCGGAAGAGCACACGU
# B3: target 2 MT 5'PFS GGC 3'PFS AAG (mixed)
# RNA 1: CACCCGUGCAAAAUUGCAGGGGUCUAAAACCUUCUCCAAAUUGUUUCAUCCU
# RNA 2: GGGAAUGGAUCCACAUCUACGAAUUCGGCAGGAUGAAACAAUUUGGAGAAGAAGAGAUCGGAAGAGCACACGU
# B4: target 2 MT 5'PFS GCU 3'PFS CCA (mixed)
# RNA 1: CACCCGUGCAAAAUUGCAGGGGUCUAAAACCUUCUCCAAAUUGUUUCAUCCU
# RNA 2: GGGAAUGGAUCCACAUCUACGAAUUCGCUAGGAUGAAACAAUUUGGAGAAGCCAAGAUCGGAAGAGCACACGU
# B5: target 2 MT 5'PFS ACG 3'PFS ACA (mixed)
# RNA 1: CACCCGUGCAAAAUUGCAGGGGUCUAAAACCUUCUCCAAAUUGUUUCAUCCU
# RNA 2: GGGAAUGGAUCCACAUCUACGAAUUCACGAGGAUGAAACAAUUUGGAGAAGACAAGAUCGGAAGAGCACACGU
# B6: target 2 MT 5'PFS ACU 3'PFS UCG (mixed)
# RNA 1: CACCCGUGCAAAAUUGCAGGGGUCUAAAACCUUCUCCAAAUUGUUUCAUCCU
# RNA 2: GGGAAUGGAUCCACAUCUACGAAUUCACUAGGAUGAAACAAUUUGGAGAAGUCGAGAUCGGAAGAGCACACGU
# B7: target 2 MT 5'PFS UCG 3'PFS CUG (mixed)
# RNA 1: CACCCGUGCAAAAUUGCAGGGGUCUAAAACCUUCUCCAAAUUGUUUCAUCCU
# RNA 2: GGGAAUGGAUCCACAUCUACGAAUUCUCGAGGAUGAAACAAUUUGGAGAAGCUGAGAUCGGAAGAGCACACGU
# B8: target 2 MT 5'PFS GUA 3'PFS GAC (mixed)
# RNA 1: CACCCGUGCAAAAUUGCAGGGGUCUAAAACCUUCUCCAAAUUGUUUCAUCCU
# RNA 2: GGGAAUGGAUCCACAUCUACGAAUUCGUAAGGAUGAAACAAUUUGGAGAAGGACAGAUCGGAAGAGCACACGU
# B9: target 2 MT 5'PFS GUA 3'PFS GAA (mixed)
# RNA 1: CACCCGUGCAAAAUUGCAGGGGUCUAAAACCUUCUCCAAAUUGUUUCAUCCU
# RNA 2: GGGAAUGGAUCCACAUCUACGAAUUCGUAAGGAUGAAACAAUUUGGAGAAGGAAAGAUCGGAAGAGCACACGU
# B10: target 2 MT 5'PFS GGC 3'PFS AAA (mixed)
# RNA 1: CACCCGUGCAAAAUUGCAGGGGUCUAAAACCUUCUCCAAAUUGUUUCAUCCU
# RNA 2: GGGAAUGGAUCCACAUCUACGAAUUCGGCAGGAUGAAACAAUUUGGAGAAGAAAAGAUCGGAAGAGCACACGU
# B11: target 2 MT 5'PFS UCG 3'PFS CUC (mixed)
# RNA 1: CACCCGUGCAAAAUUGCAGGGGUCUAAAACCUUCUCCAAAUUGUUUCAUCCU
# RNA 2: GGGAAUGGAUCCACAUCUACGAAUUCUCGAGGAUGAAACAAUUUGGAGAAGCUCAGAUCGGAAGAGCACACGU
# B12: target 2 MT 5'PFS GUA 3'PFS UAU (mixed)
# RNA 1: CACCCGUGCAAAAUUGCAGGGGUCUAAAACCUUCUCCAAAUUGUUUCAUCCU
# RNA 2: GGGAAUGGAUCCACAUCUACGAAUUCGUAAGGAUGAAACAAUUUGGAGAAGUAUAGAUCGGAAGAGCACACGU
# B13: target 2 MT 5'PFS UUU 3'PFS ACU (mixed)
# RNA 1: CACCCGUGCAAAAUUGCAGGGGUCUAAAACCUUCUCCAAAUUGUUUCAUCCU
# RNA 2: GGGAAUGGAUCCACAUCUACGAAUUCUUUAGGAUGAAACAAUUUGGAGAAGACUAGAUCGGAAGAGCACACGU
# B14: target 2 MT 5'PFS ACG 3'PFS ACU (mixed)
# RNA 1: CACCCGUGCAAAAUUGCAGGGGUCUAAAACCUUCUCCAAAUUGUUUCAUCCU
# RNA 2: GGGAAUGGAUCCACAUCUACGAAUUCACGAGGAUGAAACAAUUUGGAGAAGACUAGAUCGGAAGAGCACACGU
# B15: target 2 MT 5'PFS GGC 3'PFS AAC (mixed)
# RNA 1: CACCCGUGCAAAAUUGCAGGGGUCUAAAACCUUCUCCAAAUUGUUUCAUCCU
# RNA 2: GGGAAUGGAUCCACAUCUACGAAUUCGGCAGGAUGAAACAAUUUGGAGAAGAACAGAUCGGAAGAGCACACGU
# B16: target 2 MT 5'PFS CUU 3'PFS AUC (mixed)
# RNA 1: CACCCGUGCAAAAUUGCAGGGGUCUAAAACCUUCUCCAAAUUGUUUCAUCCU
# RNA 2: GGGAAUGGAUCCACAUCUACGAAUUCCUUAGGAUGAAACAAUUUGGAGAAGAUCAGAUCGGAAGAGCACACGU
# B17: target 2 MT 5'PFS CAA 3'PFS AGC (mixed)
# RNA 1: CACCCGUGCAAAAUUGCAGGGGUCUAAAACCUUCUCCAAAUUGUUUCAUCCU
# RNA 2: GGGAAUGGAUCCACAUCUACGAAUUCCAAAGGAUGAAACAAUUUGGAGAAGAGCAGAUCGGAAGAGCACACGU
# B18: target 2 MT 5'PFS ACU 3'PFS UCA (mixed)
# RNA 1: CACCCGUGCAAAAUUGCAGGGGUCUAAAACCUUCUCCAAAUUGUUUCAUCCU
# RNA 2: GGGAAUGGAUCCACAUCUACGAAUUCACUAGGAUGAAACAAUUUGGAGAAGUCAAGAUCGGAAGAGCACACGU
# B19: target 2 MT 5'PFS ACU 3'PFS UCC (mixed)
# RNA 1: CACCCGUGCAAAAUUGCAGGGGUCUAAAACCUUCUCCAAAUUGUUUCAUCCU
# RNA 2: GGGAAUGGAUCCACAUCUACGAAUUCACUAGGAUGAAACAAUUUGGAGAAGUCCAGAUCGGAAGAGCACACGU
# B20: target 2 MT 5'PFS ACG 3'PFS ACC (mixed)
# RNA 1: CACCCGUGCAAAAUUGCAGGGGUCUAAAACCUUCUCCAAAUUGUUUCAUCCU
# RNA 2: GGGAAUGGAUCCACAUCUACGAAUUCACGAGGAUGAAACAAUUUGGAGAAGACCAGAUCGGAAGAGCACACGU
# B21: target 2 MT 5'PFS GCU 3'PFS AGG (mixed)
# RNA 1: CACCCGUGCAAAAUUGCAGGGGUCUAAAACCUUCUCCAAAUUGUUUCAUCCU
# RNA 2: GGGAAUGGAUCCACAUCUACGAAUUCGCUAGGAUGAAACAAUUUGGAGAAGAGGAGAUCGGAAGAGCACACGU
# B22: target 2 MT 5'PFS ACG 3'PFS ACG (mixed)
# RNA 1: CACCCGUGCAAAAUUGCAGGGGUCUAAAACCUUCUCCAAAUUGUUUCAUCCU
# RNA 2: GGGAAUGGAUCCACAUCUACGAAUUCACGAGGAUGAAACAAUUUGGAGAAGACGAGAUCGGAAGAGCACACGU
# B23: target 2 MT 5'PFS AUU 3'PFS UGC (mixed)
# RNA 1: CACCCGUGCAAAAUUGCAGGGGUCUAAAACCUUCUCCAAAUUGUUUCAUCCU
# RNA 2: GGGAAUGGAUCCACAUCUACGAAUUCAUUAGGAUGAAACAAUUUGGAGAAGUGCAGAUCGGAAGAGCACACGU
# B24: target 2 MT 5'PFS ACU 3'PFS UCU (mixed)
# RNA 1: CACCCGUGCAAAAUUGCAGGGGUCUAAAACCUUCUCCAAAUUGUUUCAUCCU
# RNA 2: GGGAAUGGAUCCACAUCUACGAAUUCACUAGGAUGAAACAAUUUGGAGAAGUCUAGAUCGGAAGAGCACACGU
# B25: target 2 MT 5'PFS AAG 3'PFS UAA (mixed)
# RNA 1: CACCCGUGCAAAAUUGCAGGGGUCUAAAACCUUCUCCAAAUUGUUUCAUCCU
# RNA 2: GGGAAUGGAUCCACAUCUACGAAUUCAAGAGGAUGAAACAAUUUGGAGAAGUAAAGAUCGGAAGAGCACACGU
# B26: target 2 MT 5'PFS GCU 3'PFS AGA (mixed)
# RNA 1: CACCCGUGCAAAAUUGCAGGGGUCUAAAACCUUCUCCAAAUUGUUUCAUCCU
# RNA 2: GGGAAUGGAUCCACAUCUACGAAUUCGCUAGGAUGAAACAAUUUGGAGAAGAGAAGAUCGGAAGAGCACACGU
# B27: target 1 insA 3' of 17 (mixed)
# RNA 1: CACCCGUGCAAAAAUGCAGGGGUCUAAAACUGAGCGGAUAACCUCUCUAUGG
# RNA 2: GGGAAUGGAUCCACAUCUACGAAUUCGUACCAUAGAAGAGGUUAUCCGCUCACCGAGAUCGGAAGAGCACACGU
# B28: target 1 A16U,G17U (mixed)
# RNA 1: CACCCGUGCAAAAAUGCAGGGGUCUAAAACUGAGCGGAUAACCUCUCUAUGG
# RNA 2: GGGAAUGGAUCCACAUCUACGAAUUCGUACCAUAUUGAGGUUAUCCGCUCACCGAGAUCGGAAGAGCACACGU
# Target: T1, EsCas13d, nuclease-dead
# Experiment: crRNA (strand 1, pre-loaded); Mg2+; 40 mM Tris-HCl pH 7.5, 150 mM NaCl, 6 mM MgCl2, 1 mM DTT, 0.1% Tween-20, 0.2 mg/ml BSA; 25 C; 10 min per concentration, then washed
# Settings: tags: His6-TwinStrep-SUMO cleaved; N-terminal SNAP kept (SNAP-Surface 488); label: 3' end held by stalled T7 RNA polymerase
row,Binder,Kd [nM]
1,B1,3.6 ± 0.6
2,B2,4.1 ± 0.4
3,B3,13.1 ± 2
4,B4,25 ± 12
5,B5,9.7 ± 2.4
6,B6,6.7 ± 1
7,B7,40 ± 9
8,B8,7.9 ± 1.4
9,B9,6.7 ± 2.4
10,B10,8.9 ± 1.5
11,B11,23 ± 6
12,B12,7.8 ± 0.7
13,B13,9.1 ± 0.8
14,B14,17 ± 5
15,B15,11.7 ± 1.4
16,B16,5.1 ± 0.9
17,B17,7.6 ± 2.2
18,B18,7.3 ± 1.7
19,B19,14.3 ± 3.5
20,B20,~20
21,B21,7.9 ± 0.8
22,B22,15 ± 4
23,B23,9.7 ± 1.4
24,B24,8.4 ± 0.9
25,B25,3.7 ± 0.7
26,B26,7.3 ± 2.1
27,B27,11.8 ± 1.3
28,B28,22 ± 2.1
